What was measured:
[1] = biological target: the molecule itself; test: atomic force microscopy; single-protein samples (FruK+DNA, Cra+DNA) in 50 mM Hepes, 100 mM KCl, 0.1 mM EDTA, 10 mM MgCl2, 0.3 mM DTT, pH 7.0, 60 min at room temperature, deposited on functionalised mica; molecular volumes converted to molecular weights
[2] = biological target: fructose-1-kinase (FruK), untagged, expressed from pET-3a and purified (E. coli), P0AEW9; test: as above
[3] = biological target: T1, His-tagged Cra (pET3a-Cra-C-His) for biolayer interferometry (E. coli), P0ACP1; test: BLI; equilibrium BLI (Octet RED96): biotinylated operator DNA on streptavidin tips, dipped into pre-equilibrated 2.5 nM Cra dimer plus varied FruK; 50 mM Hepes, 0.1 M KCl, 0.1 mM EDTA, 10 mM MgCl2, pH 7.0, 0.3 mM DTT, 0.1 mg/mL BSA; room temperature; global fit to Equation 2 with n assumed 1
T1 chain: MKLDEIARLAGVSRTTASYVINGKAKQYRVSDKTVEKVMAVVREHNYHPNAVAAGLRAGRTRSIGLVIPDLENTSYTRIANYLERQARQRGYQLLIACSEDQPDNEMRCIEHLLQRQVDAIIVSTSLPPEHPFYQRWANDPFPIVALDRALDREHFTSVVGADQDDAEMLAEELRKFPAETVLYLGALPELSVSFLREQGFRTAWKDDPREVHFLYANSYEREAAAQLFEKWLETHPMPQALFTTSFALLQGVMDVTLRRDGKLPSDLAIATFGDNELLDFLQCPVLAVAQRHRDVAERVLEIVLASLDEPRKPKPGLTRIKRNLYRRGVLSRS

[4] = biological target: T2, catabolite repressor activator protein (WT Cra), untagged (E. coli), P0ACP1; test: as above
T2 chain: T1 chain

[5] = biological target: T2, catabolite repressor activator protein …; test: atomic force microscopy; Cra, FruK and 331 bp fruBKA promoter DNA mixed (20 nM Cra/20 nM FruK and 20 nM Cra/10 nM FruK), 50 mM Hepes, 100 mM KCl, 0.1 mM EDTA, 10 mM MgCl2, 0.3 mM DTT, pH 7.0, 60 min at room temperature, deposited on functionalised mica; DNA-bound and DNA-free particles; volumes converted to molecular weights and clustered
[6] = biological target: Cra (FruR), WT (Escherichia coli (gene from strain …, UniProt P0ACP1 1-334)); test: BLI; 100 nM Cra; BLI: 50 mM Hepes, 100 mM KCl, 0.1 mM EDTA, 10 mM MgCl2, 0.3 mM DTT, 0.1 mg/mL BSA, pH 7.0, about room temperature; concentrations as dimer; settings: protein: recombinant; tags: none; chain copies: 2; label: biotin

B1: catabolite repressor activator protein (WT Cra), untagged (natural protein, E. coli, UniProt P0ACP1 1-334, looked up)
chain: T1 chain
notes: also called FruR; source: E. coli 3.300, constitutively over-expressed from pHG165a, in lysate; E. coli BLIM, constitutively expressed, purified (ammonium sulfate precipitation, phosphocellulose)
stoichiometry N [1]: 2

B2: fructose-1-kinase (FruK), untagged, expressed from pET-3a and purified, P0AEW9 1-312 (enzyme)
chain: MSRRVATITLNPAYDLVGFCPEIERGEVNLVKTTGLHAAGKGINVAKVLKDLGIDVTVGGFLGKDNQDGFQQLFSELGIANRFQVVQGRTRINVKLTEKDGEVTDFNFSGFEVTPADWERFVTDSLSWLGQFDMVCVSGSLPSGVSPEAFTDWMTRLRSQCPCIIFDSSREALVAGLKAAPWLVKPNRRELEIWAGRKLPEMKDVIEAAHALREQGIAHVVISLGAEGALWVNASGEWIAKPPSVDVVSTVGAGDSMVGGLIYGLLMRESSEHTLRLATAVAALAVSQSNVGITDRPQLAAMMARVDLQPFN
modifications: not checked
stoichiometry N [2]: 2
Kd [3]: 1.6 nM
Kd [4]: 2 nM
stoichiometry N (FruK homodimer per Cra homodimer) [5]: 1

B3: His-tagged FruK (pET3a) for biolayer interferometry, P0AEW9 1-312 (enzyme)
chain: B2 chain
modifications: not checked
Kd [4]: 2.1 nM

B4: fruBproximal (dsDNA)
DNA 1: ATGCATGTTGTGTGGTTCTTGAAACGTTTCAGCTCACACAGGTCC
DNA 2: GGACCTGTGTGAGCTGAAACGTTTCAAGAACCACACAACATGCAT
modifications: 5' biotin
binding result [6]: binds

— publication PMC11157272, “Fructose-1-kinase has pleiotropic roles in Escherichia coli” (The Journal of Biological Chemistry, 2023)
